Laboratory results as given in patent US9790551B2, “Use of TRPC6 mRNA levels in peripheral blood cells for early detection/diagnosis of senile dementia” (Aging Wise Biotechnology, Inc., priority 2013, dated 2017).

Experiments:
Format in all cases: cell-based
[1] = tested on: Aβ levels in HEK293APP stable cells; experiment: Aβ ELISA of culture medium, HEK293APP stable cells transfected with TRPC plasmids; conditions: Table 1; HEK293APP stable cell, 1 ug plasmid, medium ELISA after 48 hr; empty vector = 1
Protocol: (§1) Upon collecting the culture medium of the cells, Aβ40 and Aβ42 levels were quantified with sandwich ELISA kit, respectively (purchased from Invitrogen). The forebrain of the mouse was dissected and separated, and then homogenized with GuHCL. After that, total Aβ was determined by ELISA. For determining TBST(Tris-Buffered Saline and 1% TritonX100, 1% SDS, 1% DOC) soluble and insoluble Aβ, upon TBST homogenation and centrifugation of the forebrain of the mouse, the supernatant was determined for TBST soluble Aβ by ELISA, and the precipitate was determined for TBST insoluble Aβ by ELISA upon another GuHCL homogenate.
(§2) HEK293APP stable cell line was cultured in DMEM culture solution (containing 200 ng/ml G418) with 10% FBS. C0S7C99 cells were cultured in MEM/F12 culture solution (containing 0.4 ug/ml hygromycin B) with 5% FBS, 1% NEAA, and 200 mM Glutamax. All the transfection was conducted by using Lipofectamin 2000 (Invitrogen).
HEK293 cells were inoculated to 60 mm dishes. When the density was close to 80%, 4 ug APP plasmid was transfected with Lipofectamine 2000. After 4 h, the culture medium was replaced and 400 ng/ml of G418 was added. Cells were passage 2 days later and G418 in the culture was maintained at 400 ng/ml. After 2-3 weeks, the cells not transected died gradually, and the survived cells were HEK293 cells expressing APP. Then, G418 was reduced to and maintained at 200 ng/ml.
TRPC6 or TRPC5 was overexpressed in HEK293APP stable cell lines respectively (Cells were passaged into 12-well plates till the densities were close to 80%. Each well was transfected with 1 ug plasmid using Lipofectamine 2000, and the Aβ levels in the medium were determined with ELISA after 48 hr).
Afterwards, HEK293APP stable cells were passaged in 12-well plate till the density approached 80%. Each well was transfected with lug plasmid using Lipofectamine 2000, and the Aβ levels in the culture medium were determined with ELISA after 48 h. The targeting fragment was primarily narrowed down to 437-507aa.
The […] of TRPC6 contains the first transmembrane regions(TM1), the first extracellular loop (Loop1), and the second transmembrane regions (TM2). To further narrow down the active domain, we constructed 3 variant plasmids, with TM2 region replacement by TM1 region (C6-mut1), reversal of TM2 sequence (C6-mut2) or point mutations within TM2 region(C6-mut3). Then HEK293APP stable cells were passaged in 12-well plate. When the density was close to 80%, every well was transfected with lug plasmid using Lipofectamine 2000, and the Aβ levels in the medium were determined with ELISA after 48 h. The active fragment was further narrowed down to 487-507aa.

[2] = tested on: γ-secretase cleavage of C99; experiment: C99-GVP/UAS-luciferase reporter assay with TRPC6 plasmid; conditions: Table 3; luciferase activity, lysed 24 hours after transfection; empty vector = 1
Protocol: HEK293APP were transfected with C99-GVP/UASLuciferase, CTRL or TRPC6 plasmids, and were lysed 24 hours later. The luciferase activities were determined using the Luciferase assay system (purchased from Promega). β-gal was co-transfected to normalize the transfection efficiency.

[3] = tested on: γ-secretase cleavage of Notch; experiment: NICD immunoblotting after co-transfection of TRPC6 and Notch plasmids; conditions: immunoblotting 48 h after transfection, 1 ug TRPC6 and 1 ug Notch plasmids
Protocol: Cells were passaged in 12-well plate till the density approached 80%. Each well was transfected with 1 ug of TRPC6 and 1 ug of Notch plasmids using Lipofectamine 2000. Immunoblotting was used to examine the expression of Notch protein 48 h later. Wherein, NICD (notch intracellular domain) is the intracellular fragment produced by γ-secretase cleavage of Notch ΔE-myc, reflecting the level of γ-secretase cleavage of Notch.

[4] = tested on: γ-secretase cleavage of C99; experiment: Aβ ELISA, COS7-C99 stable cells overexpressing TRPC6; conditions: Table 3, 1 ug plasmid, 48 h, empty vector = 1
Protocol: as §1, §2
C0S7C99 cells overexpressing TRPC6 were obtained by cell-transfection through general method 9 (n=5). The cells were passaged in 12-well plate till the density approached 80%. Each well was transfected with 1 ug plasmid using Lipofectamine 2000, and the Aβ levels in the culture medium were determined with ELISA after 48 h.

B1: TRPC6: transient receptor potential canonical 6 protein, overexpressed from plasmid; SEQ ID NO.:5 (protein, listed as Mus musculus)
chain: MSQSPRFVTRRGGSLKAAPGAGTRRNESQDYLLMDELGDDGYPQLPLPPYGYYPSFRGNENRLTHRRQTILREKGRRLANRGPAYMFNDHSTSLSIEEERFLDAAEYGNIPVVRKMLEECHSLNVNCVDYMGQNALQLAVANEHLEITELLLKKENLSRVGDALLLAISKGYVRIVEAILNHPAFAEGKRLATSPSQSELQQDDFYAYDEDGTRFSHDVTPIILAAHCQEYEIVHTLLRKGARIERPHDYFCKCTECSQKQKHDSFSHSRSRINAYKGLASPAYLSLSSEDPVMTALELSNELAVLANIEKEFKNDYRKLSMQCKDFVVGLLDLCRNTEEVEAILNGDAETRQPGDFGRPNLSRLKLAIKYEVKKFVAHPNCQQQLLSIWYENLSGLRQQTMAVKFLVVLAVAIGLPFLALIYWCAPCSKMGKILRGPFMKFVAHAASFTIFLGLLVMNAADRFEGTKLLPNETSTDNARQLFRMKTSCFSWMEMLIISWVIGMIWAECKEIWTQGPKEYLFELWNMLDFGMLAIFAASFIARFMAFWHASKAQSIIDANDTLKDLTKVTLGDNVKYYNLARIKWDPTDPQIISEGLYAIAVVLSFSRIAYILPANESFGPLQISLGRTVKDIFKFMVIFIMVFVAFMIGMFNLYSYYIGAKQNEAFTTVEESFKTLFWAIFGLSEVKSVVINYNHKFIENIGYVLYGVYNVTMVIVLLNMLIAMINSSFQEIEDDADVEWKFARAKLWFSYFEEGRTLPVPFNLVPSPKSLLYLLLKFKKWMCELIQGQKQGFQEDAEMNKRNEEKKFGISGSHEDLSKFSLDKNQLAHNKQSSTRSSEDYHLNSFSNPPRQYQKIMKRLIKRYVLQAQIDKESDEVNEGELKEIKQDISSLRYELLEEKSQNTEDLAELIRKLGERLSLEPKLEESRR
B1 was tested, and the Aβ40 [1] was 0.6839 ± 0.07359, the Aβ42 [1] was 0.6734 ± 0.06994 and the C99-GVP/UAS-Luciferase reporter system [2] was 0.4650 ± 0.02628. The “NICD level (γ-secretase cleavage of NotchΔE-myc)” value [3] was “did not affect NICD level”, the Aβ40 [4] was 0.5949 ± 0.06435 and the Aβ42 [4] was 0.5805 ± 0.04428.
